For one data set, the system named is DX3puroβ6 tumor. Particulars: mouse, in vivo; cited from earlier work.
The nature of data set [1]: Biodistribution in normal CD-1 mice. In kind it is in vivo. To be noted: mouse, iv, total radioactivity, 0.37 MBq i.v., n = 4–5, mean ± SD. As for the experimental part:
The comparison of non-albumin binding and albumin binding peptides were evaluated in CD-1 mice at 1, 4, 24, and 48 h. ^177Lu-labeled peptides were prepared at the specific activity of 10 MBq/nmol. Mice (n = 4–5) were intravenously injected with 0.37 MBq (10 µCi) of respective radioligands diluted in 100 μL saline and sacrificed at specified time points. Selected organs were collected, weighed, and counted for activity. The results were reported as the percentage of the injected radioactivity per gram of tissue mass (% ID/g) and the radioactivity was calibrated using a known standard.

The test system of another data set is BxPC-3 tumors. The experiment in a line: Therapy studies in BxPC-3 tumor-bearing mice. In kind it is in vivo, athymic nude mice. The procedure: Therapy studies were conducted in athymic nude mice bearing BxPC-3 tumors when the tumor volume reached about 100 mm^3. […] Tumor volumes and body weights were monitored three times a week. Individual tumor size was calculated using the formula (length × width × width)/2. The mice were euthanized when the tumor reached 1500 mm^3, ulceration of >4 mm was present, or significant stress due to weight loss. […] The doses were administered via tail vein and tumor size and mouse weights were recorded three times a week. Tumor volumes were plotted versus time to determine tumor growth inhibition.

Another data set deals with serum albumin. Particulars: cited from earlier work.
Data set [2] can be described thus: PET/CT imaging of BxPC-3 tumor-bearing mice. To be noted: athymic nude, mouse, iv, 3.7 MBq, total radioactivity. In kind it is in vivo. The procedure: For blocking study, excess of unlabeled peptides was administered 1–2 min before radiotracer injection. The PET scans were acquired for 20 min on an Inveon small animal PET/CT scanner (Siemens Medical Solutions, Malvern, PA, USA). Static images were reconstructed with the maximum a posteriori (MAP) reconstruction algorithm and corrected for decay. Image analysis was performed using the Inveon Research Workstation image display software (Siemens). Regions of interest (ROI) were selected based on co-registered anatomical CT images, and the average or maximum standard uptake value (SUV) was calculated as the mean or maximum regional radioactivity concentration (nCi/cc) x animal weight (g)/decay-corrected amount of injected dose (nCi).

A short description of data set [3]: Biodistribution in mice bearing BxPC-3 tumor xenografts. The data set is classed as in vivo. Particulars: athymic nude, mouse, iv, total radioactivity, BxPC-3 tumor mice, 0.37 MBq i.v.; for tissue uptake at 1 h: 1 h p.i.; for tissue uptake at 48 h: 48 h p.i. As for the experimental part:
Animals were supplied from Charles River Laboratories (Wilmington, MA, USA), and were handled in compliance with the Guidelines for Care and Use of Research Animals established by the Division of Comparative Medicine and the Animal Studies Committee of Washington University School of Medicine. Biodistribution studies were conducted in athymic nude mice bearing subcutaneous BxPC-3 tumors. Tumors were implanted on the right flank with 5 × 10^6 cells about 4 weeks before the performance of the experiments. Biodistribution studies were performed when the tumors reached approximately 5–7 mm in diameter. […] Tissues of interest (blood, lung, liver, spleen, kidney, muscle, heart, bone, and tumor) were collected and weighed, and the radioactivity was measured using a gamma counter. The results were expressed as the percentage of injected dose per gram of tissue (%ID/g).

Where [4] appears, read: blood, n = 4–5, mean ± SD, read-out: blood uptake.
Where [5] appears, read: n = 4–5, mean ± SD, read-out: tumor uptake.

Like-named read-outs stand apart in the source and are kept apart here.

For the compound NAVPNLRGDLQVLAQKVART [A20FMDV2], the tumor uptake in the data set on DX3puroβ6 tumor was 0.66 ± 0.09 % ID/g.

As for `CC(C)C[C@H](NC(=O)[C@H](CC(=O)O)NC(=O)CNC(=O)[C@H](CCCNC(=N)N)NC(=O)[C@H](CC(C)C)NC(=O)[C@H](CC(N)=O)NC(=O)[C@@H]1CCCN1C(=O)[C@@H](NC(=O)[C@H](C)NC(=O)[C@H](CC(N)=O)NC(=O)CCOCCOCCOCCOCCOCCOCCOCCOCCOCCOCCOCCOCCOCCOCCOCCOCCOCCOCCOCCOCCOCCOCCOCCOCCOCCOCCOCCOCCNC(=O)CN1CCN(CC(=O)O)CCN(CC(=O)O)CCN(CC(=O)O)CC1)C(C)C)C(=O)N[C@@H](CCC(N)=O)C(=O)N[C@H](C(=O)N[C@@H](CC(C)C)C(=O)N[C@@H](C)C(=O)N[C@@H](CCC(N)=O)C(=O)N[C@@H](CCCCN)C(=O)N[C@H](C(=O)N[C@@H](C)C(=O)N[C@@H](CCCNC(=N)N)C(=O)N[C@H](C(=O)NCCOCCOCCOCCOCCOCCOCCOCCOCCOCCOCCOCCOCCOCCOCCOCCOCCOCCOCCOCCOCCOCCOCCOCCOCCOCCOCCOCCOCCC(N)=O)[C@@H](C)O)C(C)C)C(C)C` [metal not drawn], the tissue uptake at 1 h in data set [1] (blood) was determined as 0.11 ± 0.04 %ID/g. Also, in the data set with BxPC-3 tumors (27.8 MBq, n = 8, during the course of the study), the body weight change result is “no significant weight loss”. The “tumor inhibition in comparison to control group” value in the data set with BxPC-3 tumors (27.8 MBq, n = 8, until day 23 (p < 0.001 for the IBA peptide)) was “did not show significant tumor growth inhibition”.

With `O=C(O)CCCc1ccc(I)cc1` [4-(p-iodophenyl)butyric acid], in the data set with serum albumin, the “non-covalent binding with serum albumin” value was “micromolar range”.

Take `Cc1cc(-c2ccc(/N=N/c3ccc4c(S(=O)(=O)O)cc(S(=O)(=O)O)c(N)c4c3O)c(C)c2)ccc1/N=N/c1ccc2c(S(=O)(=O)O)cc(S(=O)(=O)O)c(N)c2c1O` [Evans Blue]: the “IC50 of reversible binding to serum albumin” value in the data set on serum albumin is listed as “micromolar range”.

As for `CC(C)C[C@H](NC(=O)[C@H](CC(=O)O)NC(=O)CNC(=O)[C@H](CCCNC(=N)N)NC(=O)[C@H](CC(C)C)NC(=O)[C@H](CC(N)=O)NC(=O)[C@@H]1CCCN1C(=O)[C@@H](NC(=O)[C@H](C)NC(=O)[C@H](CC(N)=O)NC(=O)CCOCCOCCOCCOCCOCCOCCOCCOCCOCCOCCOCCOCCOCCOCCOCCOCCOCCOCCOCCOCCOCCOCCOCCOCCOCCOCCOCCOCCNC(=O)CN1CCN(CC(=O)O)CCN(CC(=O)O)CCN(CC(=O)O)CC1)C(C)C)C(=O)N[C@@H](CCC(N)=O)C(=O)N[C@H](C(=O)N[C@@H](CC(C)C)C(=O)N[C@@H](C)C(=O)N[C@@H](CCC(N)=O)C(=O)N[C@@H](CCCCN)C(=O)N[C@H](C(=O)N[C@@H](C)C(=O)N[C@@H](CCCNC(=N)N)C(=O)N[C@H](C(=O)NCCOCCOCCOCCOCCOCCOCCOCCOCCOCCOCCOCCOCCOCCOCCOCCOCCOCCOCCOCCOCCOCCOCCOCCOCCOCCOCCOCCOCCC(N)=O)[C@@H](C)O)C(C)C)C(C)C` [[^68Ga]Ga-DOTA-(PEG28)2-A20FMDV2, metal not drawn], the SUV at 1 h in data set [2] (mice receiving blocking agent (excess unlabeled peptide 1–2 min before), 1 h after 3.7 MBq i.v., n = 3, read-out: tumor SUVmax) stood at 1.71 ± 0.04 SUV; in data set [2] (mice receiving blocking agent (excess unlabeled peptide 1–2 min before), 1 h after 3.7 MBq i.v., n = 3, read-out: tumor SUVmean), 1.22 ± 0.12 SUV; in data set [2] (non-block mice, 1 h after i.v. injection of 3.7 MBq, n = 3, read-out: tumor SUVmax), 3.85 ± 1.06 SUV; in data set [2] (non-block mice, 1 h after i.v. injection of 3.7 MBq, n = 3, read-out: tumor SUVmean) it was 2.77 ± 0.38 SUV.

In the case of `CC(C)C[C@H](NC(=O)[C@H](CC(=O)O)NC(=O)CNC(=O)[C@H](CCCNC(=N)N)NC(=O)[C@H](CC(C)C)NC(=O)[C@H](CC(N)=O)NC(=O)[C@@H]1CCCN1C(=O)[C@@H](NC(=O)[C@H](C)NC(=O)[C@H](CC(N)=O)NC(=O)CCOCCOCCOCCOCCOCCOCCOCCOCCOCCOCCOCCOCCOCCOCCOCCOCCOCCOCCOCCOCCOCCOCCOCCOCCOCCOCCOCCOCCNC(=O)CCSC1CC(=O)N(CCC(=O)NCCNC(=O)[C@H](CCCCNC(=O)CN2CCN(CC(=O)O)CCN(CC(=O)O)CCN(CC(=O)O)CC2)NC(=O)c2ccc(-c3ccc(N=Nc4ccc5c(S(=O)(=O)O)cc(S(=O)(=O)O)c(N)c5c4O)cc3)cc2)C1=O)C(C)C)C(=O)N[C@@H](CCC(N)=O)C(=O)N[C@H](C(=O)N[C@@H](CC(C)C)C(=O)N[C@@H](C)C(=O)N[C@@H](CCC(N)=O)C(=O)N[C@@H](CCCCN)C(=O)N[C@H](C(=O)N[C@@H](C)C(=O)N[C@@H](CCCNC(=N)N)C(=O)N[C@H](C(=O)NCCOCCOCCOCCOCCOCCOCCOCCOCCOCCOCCOCCOCCOCCOCCOCCOCCOCCOCCOCCOCCOCCOCCOCCOCCOCCOCCOCCOCCC(N)=O)[C@@H](C)O)C(C)C)C(C)C` (stereo partly shown) [[^177Lu]Lu-EB-DOTA-(PEG28)2-A20FMDV2, metal not drawn], the % intact in human serum was > 90%. In data set [1] (blood), the tissue uptake at 1 h was found to be 5.36 ± 1.06 %ID/g. Moreover, the tissue uptake at 48 h in data set [1] (blood, 48 h p.i., read-out: blood uptake) turned out to be 0.41 ± 0.03 %ID/g. Further, in data set [1] (kidney, 48 h, read-out: kidney uptake), the tissue uptake at 48 h is 44.3 ± 5.13 %ID/g. Also, in data set [3] (setting [4]), the tissue uptake at 1 h was 4.8 ± 0.69 %ID/g and the tissue uptake at 48 h was 0.28 ± 0.01 %ID/g. In data set [3] (blood, 4 h, n = 4–5, mean ± SD), the tissue uptake at 4 h was determined as 1.23 ± 0.3 %ID/g. In data set [3] (setting [5]), the tissue uptake at 1 h was 5.2 ± 1.02 %ID/g and the tissue uptake at 48 h was determined as 4.29 ± 0.78 %ID/g. In data set [3] (lung, liver, spleen, muscle, heart, bone, all time points (1, 4, 24, 48 h), read-out: uptake in normal organs such as lung, liver, spleen, muscle, heart, and bone), the tissue uptake was < 4 %ID/g. Further, the “tumor volumes in comparison to the control group” value in the data set on BxPC-3 tumors (single dose of 37 MBq, BxPC-3 tumor-bearing mice, n = 8, p < 0.001) was “significantly reduced”. In addition, in the data set on BxPC-3 tumors (single dose of 37 MBq, two weeks after radiotracer injection), the mortality result is recorded as “death of all mice”.

The values are drawn from publication PMC8876964 (Pharmaceuticals, 2022).
